Values quoted from earlier work in paper PMC11281341.
pKd: −log10 of the molar value.

Molecular target: HIV-1 capsid protein (CA) CA (Human immunodeficiency virus 1) (UniProt O93182)
Sequence (O93182 133-363): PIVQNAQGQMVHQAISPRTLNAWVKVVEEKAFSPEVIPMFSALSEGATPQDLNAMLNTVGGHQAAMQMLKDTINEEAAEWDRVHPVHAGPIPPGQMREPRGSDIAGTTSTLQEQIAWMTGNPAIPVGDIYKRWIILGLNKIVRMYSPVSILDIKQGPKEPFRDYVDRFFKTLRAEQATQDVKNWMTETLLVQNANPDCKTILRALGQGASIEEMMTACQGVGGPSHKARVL

TRIM5alpha SPRY, sequence (Q0PF16 283-497): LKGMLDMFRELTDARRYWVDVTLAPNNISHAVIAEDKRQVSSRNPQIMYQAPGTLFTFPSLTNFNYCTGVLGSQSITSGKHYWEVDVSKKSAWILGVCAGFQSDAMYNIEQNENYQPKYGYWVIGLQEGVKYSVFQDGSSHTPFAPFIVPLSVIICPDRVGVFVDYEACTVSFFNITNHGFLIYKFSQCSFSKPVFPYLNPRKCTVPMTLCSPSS

Substance: TRIM5alpha SPRY (from UniProt Q0PF16)
- pKd: < 3.00
